We go through seven substances from publication PMC4833381.

In test [1] the target is HCMV gB with a C-terminal FLAG epitope tag (Ad vector) (human cytomegalovirus) (UniProt P06473). As to the kind of experiment: co-IP; IP-western: ARPE-19 cells transduced with Ad vectors, 1% NP-40 lysates; IP with anti-gH MAb 14-4b, anti-gB MAbs 9C1, 13H10, 15H7 or anti-FLAG MAb; protein-A agarose; blots for gB, gH, HSV-1 gH or HSV-1 gD; percent against 5% input (ImageJ).
Test [2] has as its target HCMV glycoprotein gB, lab strain AD169 (Ad vector) (human cytomegalovirus, strain AD169) (UniProt P06473). Described as above.
Test [3] has as its target HCMV gB of HCMV BADrUL131 (infected cells and extracellular virions) (human cytomegalovirus, BADrUL131) (UniProt P06473). In words: co-IP.
The target of test [4] is HCMV UL130 of HCMV BADrUL131 (extracellular virions) (human cytomegalovirus, BADrUL131) (UniProt P16772). In words: co-IP.
Test [5] has as its target HCMV glycoprotein gH, strain TR (Ad vector) (human cytomegalovirus, strain TR). As to the kind of experiment: co-IP; IP-western: MRC-5 fibroblasts transduced with Ad vectors, 1% NP-40 lysates; IP with anti-gH MAb 14-4b; blot with anti-gB rabbit serum; percent against 5% input.
Test [6] has the same target. In words: co-IP; IP-western: ARPE-19 cells transduced with Ad vectors, 1% NP-40 lysates; IP with anti-gH MAb 14-4b, anti-gB MAbs 9C1, 13H10, 15H7 or anti-FLAG MAb; protein-A agarose; blots for gB, gH, HSV-1 gH or HSV-1 gD; percent against 5% input (ImageJ).
The target is the same in test [7]. In words: co-IP; pulse-chase: Ad-transduced ARPE-19 cells labeled 15 min with 35S-methionine/cysteine, chased 60, 120 or 240 min; 1% NP-40 extracts; IP with anti-gH MAb 14-4b; SDS-PAGE under reducing conditions.
For test [8], the target named is HCMV gL of HCMV BADrUL131 (extracellular virions) (human cytomegalovirus, BADrUL131) (UniProt P16832). As to the kind of experiment: co-IP.
The target of test [9] is HCMV gB of HCMV BADrUL131 (infected cells and extracellular virions) (human cytomegalovirus, BADrUL131) (UniProt P06473). As to the kind of experiment: co-IP; IP-western, repeat with an additional BADrUL131 virion preparation solubilized in 1% NP-40; IP with anti-gB MAb 15H7; gH signal read beside a linear range of gH/gL lysate (Image Studio, Licor).
The target of test [10] is HCMV gB of clinical strain TR (extracellular virions) (human cytomegalovirus, strain TR). As to the kind of experiment: co-IP; IP-western: extracellular virions of HCMV clinical strain TR solubilized in 1% NP-40; IP with anti-gB MAb 15H7; gH signal read beside a linear range of gH/gL lysate (Image Studio, Licor).

Sequence of UniProt P16832 (P16832 31-278): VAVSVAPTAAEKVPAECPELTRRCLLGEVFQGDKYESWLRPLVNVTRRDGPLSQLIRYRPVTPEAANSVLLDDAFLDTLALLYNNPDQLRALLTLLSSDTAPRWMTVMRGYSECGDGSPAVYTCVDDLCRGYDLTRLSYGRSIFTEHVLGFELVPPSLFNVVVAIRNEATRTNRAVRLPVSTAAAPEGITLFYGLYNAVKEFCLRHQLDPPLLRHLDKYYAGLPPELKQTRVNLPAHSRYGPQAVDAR

As to “HCMV glycoprotein gH, strain TR (Ad vector) (natural protein)”, the percent of gH/gL co-IP'd with gB MAbs or anti-FLAG MAbs in [1] and in [2] was 1 to 6% each time.
“HCMV gO of HCMV BADrUL131 (extracellular virions) (from UniProt P16750 31-466) (natural protein)” had a percent of the total co-IP'd with gB in test [3] of 1%.
Still for that read-out and setting: in the case of “HCMV UL130 of HCMV BADrUL131 (extracellular virions) (from UniProt P16772) (natural protein)” it was 2.5%.
As to “HCMV gB of HCMV BADrUL131 (infected cells and extracellular virions) (from UniProt P06473 32-906) (natural protein)”, the percent of the total gB precipitated with anti-UL130 serum in [4] is 1%.
For the substance “HCMV glycoprotein gB, lab strain AD169 (Ad vector) (from UniProt P06473 32-906) (natural protein)”, the percent of the total gB co-IP'd with gH/gL in [5] was found to be 13%; in [6], 16.5%. The substance further gave a gB complexed with gH/gL, percent of the gH/gL precipitated (pulse sample) in [7] of 38%.
As for “HCMV gH of HCMV BADrUL131 (infected cells and extracellular virions) (from UniProt P12824 24-743) (natural protein)”, in test [3], the percent of the total gH/gL co-IP'd with gB came out at 50%. This substance also returned a percent of the total gH IP'd with gL antibodies in test [8] of 8%. In test [4], this substance showed a percent of the total gH/gL precipitated with anti-UL130 serum of 24%. In test [9], this substance gave a percent of the total gH co-IP'd with gB of 21%.
The substance “HCMV gH of clinical strain TR (extracellular virions) (natural protein)” displayed a percent of the total gH co-IP'd with gB in test [10] of 16%.
